The Kd is the equilibrium constant for the complex coming apart. A higher Kd goes with a looser complex.

Assay [1] concerns the target T1, HAUSP TRAF domain (HAUSP^62-205) (human, UniProt Q93009 62-205).
T1 construct: also called TRAF-like domain of HAUSP
Kind of assay: ITC. (In ITC the heat of successive injections is recorded.)

Assay [2] addresses T1, HAUSP TRAF domain (HAUSP^62-205). Kind of assay: ITC, titration against the HAUSP TRAF domain, 20 C.
For assay [3], the target named is T2, vIRF4 (Kaposi's-sarcoma-associated-herpesvirus vIRF4), full length wild type (Kaposi's-sarcoma-associated-herpesvirus …, UniProt Q2HR73 1-911).
T2 sequence: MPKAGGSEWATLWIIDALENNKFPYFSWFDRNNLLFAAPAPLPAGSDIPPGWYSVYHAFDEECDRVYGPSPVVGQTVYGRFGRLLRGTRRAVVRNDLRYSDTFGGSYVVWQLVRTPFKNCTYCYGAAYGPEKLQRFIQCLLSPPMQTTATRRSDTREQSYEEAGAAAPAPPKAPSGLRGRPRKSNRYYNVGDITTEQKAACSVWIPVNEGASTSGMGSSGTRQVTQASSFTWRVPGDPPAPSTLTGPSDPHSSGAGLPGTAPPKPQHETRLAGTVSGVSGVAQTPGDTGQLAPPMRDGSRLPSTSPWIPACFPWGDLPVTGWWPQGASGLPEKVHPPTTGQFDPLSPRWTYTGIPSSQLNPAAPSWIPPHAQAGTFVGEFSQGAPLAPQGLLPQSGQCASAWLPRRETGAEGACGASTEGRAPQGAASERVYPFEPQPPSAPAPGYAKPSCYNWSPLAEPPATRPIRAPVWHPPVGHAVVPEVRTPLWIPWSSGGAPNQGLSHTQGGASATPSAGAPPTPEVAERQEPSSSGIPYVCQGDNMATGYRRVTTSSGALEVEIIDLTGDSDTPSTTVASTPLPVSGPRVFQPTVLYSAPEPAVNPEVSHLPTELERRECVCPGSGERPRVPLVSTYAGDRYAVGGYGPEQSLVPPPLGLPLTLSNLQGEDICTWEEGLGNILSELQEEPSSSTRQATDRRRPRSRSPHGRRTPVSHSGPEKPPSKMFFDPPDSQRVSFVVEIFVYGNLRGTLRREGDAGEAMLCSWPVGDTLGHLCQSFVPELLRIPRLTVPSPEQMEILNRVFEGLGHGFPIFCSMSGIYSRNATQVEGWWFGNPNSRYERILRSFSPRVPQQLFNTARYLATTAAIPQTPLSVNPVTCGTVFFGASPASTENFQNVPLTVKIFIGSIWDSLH
As to the kind of experiment: co-immunoprecipitation from transfected 293T cells, IP: V5, IB: Flag.

For assay [4], the target named is T3, HAUSP (Herpes virus-associated ubiquitin-specific protease), full length (human, UniProt Q93009 1-1102).
T3 construct: also called USP7; Flag-HAUSP
As to the kind of experiment: co-transfection in 293T cells (Flag-HAUSP with V5-vIRF4 constructs).

T1 sequence (Q93009 62-205): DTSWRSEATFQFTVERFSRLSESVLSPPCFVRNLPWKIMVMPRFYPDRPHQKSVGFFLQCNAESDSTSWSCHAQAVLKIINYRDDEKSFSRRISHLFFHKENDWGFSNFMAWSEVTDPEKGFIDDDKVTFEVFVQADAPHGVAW

B1: vIRF4^153-256 (other)
chain: SDTREQSYEEAGAAAPAPPKAPSGLRGRPRKSNRYYNVGDITTEQKAACSVWIPVNEGASTSGMGSSGTRQVTQASSFTWRVPGDPPAPSTLTGPSDPHSSGAG
On to B1, for which the “fold higher affinity (against vIRF4^153-216 and vIRF4^202-216)” value in assay [1] worked out at 7 fold. In assay [2], this molecule yielded a Ka of 1.32e+07 M⁻¹, a Kd of 76 nM, a TΔS of -10.1 kcal/mol and a n of 1.13. For the same molecule, in assay [2], the ΔG was -7.64 kcal/mol and the ΔH is -17.7 kcal/mol.

B2: Flag/HAUSP 205-1108 (enzyme)
single chain: WDSKKHTGYVGLKNQGATCYMNSLLQTLFFTNQLRKAVYMMPTEGDDSSKSVPLALQRVFYELQHSDKPVGTKKLTKSFGWETLDSFMQHDVQELCRVLLDNVENKMKGTCVEGTIPKLFRGKMVSYIQCKEVDYRSDRREDYYDIQLSIKGKKNIFESFVDYVAVEQLDGDNKYDAGEHGLQEAEKGVKFLTLPPVLHLQLMRFMYDPQTDQNIKINDRFEFPEQLPLDEFLQKTDPKDPANYILHAVLVHSGDNHGGHYVVYLNPKGDGKWCKFDDDVVSRCTKEEAIEHNYGGHDDDLSVRHCTNAYMLVYIRESKLSEVLQAVTDHDIPQQLVERLQEEKRIEAQKRKERQEAHLYMQVQIVAEDQFCGHQGNDMYDEEKVKYTVFKVLKNSSLAEFVQSLSQTMGFPQDQIRLWPMQARSNGTKRPAMLDNEADGNKTMIELSDNENPWTIFLETVDPELAASGATLPKFDKDHDVMLFLKMYDPKTRSLNYCGHIYTPISCKIRDLLPVMCDRAGFIQDTSLILYEEVKPNLTERIQDYDVSLDKALDELMDGDIIVFQKDDPENDNSELPTAKEYFRDLYHRVDVIFCDKTIPNDPGFVVTLSNRMNYFQVAKTVAQRLNTDPMLLQFFKSQGYRDGPGNPLRHNYEGTLRDLLQFFKPRQPKKLYYQQLKMKITDFENRRSFKCIWLNSQFREEEITLYPDKHGCVRDLLEECKKAVELGEKASGKLRLLEIVSYKIIGVHQEDELLECLSPATSRTFRIEEIPLDQVDIDKENEMLVTVAHFHKEVFGTFGIPFLLRIHQGEHFREVMKRIQSLLDIQEKEFEKFKFAIVMMGRHQYINEDEYEVNLKDFEPQPGNMSHPRPWLGLDHFNKAPKRSRYTYLEKAIKIHN
notes: N-terminal deletion fragment without the TRAF domain
On to B2, for which the binding result in assay [3] is on record as “no binding”.

B3: vIRF4Δ^202-256 mutant (other)
chain: MPKAGGSEWATLWIIDALENNKFPYFSWFDRNNLLFAAPAPLPAGSDIPPGWYSVYHAFDEECDRVYGPSPVVGQTVYGRFGRLLRGTRRAVVRNDLRYSDTFGGSYVVWQLVRTPFKNCTYCYGAAYGPEKLQRFIQCLLSPPMQTTATRRSDTREQSYEEAGAAAPAPPKAPSGLRGRPRKSNRYYNVGDITTEQKAACLPGTAPPKPQHETRLAGTVSGVSGVAQTPGDTGQLAPPMRDGSRLPSTSPWIPACFPWGDLPVTGWWPQGASGLPEKVHPPTTGQFDPLSPRWTYTGIPSSQLNPAAPSWIPPHAQAGTFVGEFSQGAPLAPQGLLPQSGQCASAWLPRRETGAEGACGASTEGRAPQGAASERVYPFEPQPPSAPAPGYAKPSCYNWSPLAEPPATRPIRAPVWHPPVGHAVVPEVRTPLWIPWSSGGAPNQGLSHTQGGASATPSAGAPPTPEVAERQEPSSSGIPYVCQGDNMATGYRRVTTSSGALEVEIIDLTGDSDTPSTTVASTPLPVSGPRVFQPTVLYSAPEPAVNPEVSHLPTELERRECVCPGSGERPRVPLVSTYAGDRYAVGGYGPEQSLVPPPLGLPLTLSNLQGEDICTWEEGLGNILSELQEEPSSSTRQATDRRRPRSRSPHGRRTPVSHSGPEKPPSKMFFDPPDSQRVSFVVEIFVYGNLRGTLRREGDAGEAMLCSWPVGDTLGHLCQSFVPELLRIPRLTVPSPEQMEILNRVFEGLGHGFPIFCSMSGIYSRNATQVEGWWFGNPNSRYERILRSFSPRVPQQLFNTARYLATTAAIPQTPLSVNPVTCGTVFFGASPASTENFQNVPLTVKIFIGSIWDSLH
Regarding B3, the binding result in assay [4] was “no binding”.

For the origin of these results see patent US20180201654A1 (UNIVERSITY OF SOUTHERN CALIFORNIA, published 2018).
